The values below come from doi:10.1101/2022.07.31.502215.

The experiment addresses SARS-CoV-2 main protease (Mpro) H172Y (SARS-CoV-2).

In turn, “Dabcyl-KTSAVLQ↓SGFRKM-E(Edans)-NH2 FRET substrate (peptide)” showed a Michaelis constant Km, FRET-based cleavage assay (400 nM enzyme, substrate 10 to 320 μM, 20 mM HEPES, 120 mM NaCl, pH 7.0) of 803 μM.
